# B1: OR4K15 (parent)
# chain: GUUAACGGUCAUAGGCCAUGGAAACUAGGAGCACCAUUUCGCUGCCAGUGAAGAAAUGAACAAAGAAAAUCUGGGCCAGGCAGGCAUCAAAAGAAAUAGUCUUGCGCUCAACCAGAAAGUCUGUAAUCAUUUUAAGGGUA
# Variants of: B1
# Assay: self-cleavage, relative activity (ratio to wild type); higher = more cleavage; in vitro, sequencing; the parent is a self-cleaving ribozyme
row,Variant,self-cleavage
1,U26C G44U,1.99
2,U26C U39C,1.63
3,U26C U57C,1.44
4,A24U A56G,2.25
5,C25U A118G,0.68
6,A24U A55U,0.93
7,C25A A95G,0.89
8,A24U U103C,0.25
9,U26A A56G,1.7
10,A24U A52G,1.32
11,A24U C76U,0.06
12,C25U U100C,2.01
13,C25U A51G,2.48
14,U26C U43A,1.29
15,A27C,1.21
16,A24U A62G,2.33
17,U26C U38C,1.45
18,A24G U72C,0.27
19,A24G G136C,1.47
20,U26C A52U,0.88
21,U26C A52G,1.82
22,C25U U49C,1.45
23,U26A A62G,1.75
24,U26A U122C,0.72

row,Variant,self-cleavage
1,U26A U122A,0.73
2,A24U A111G,0.03
3,U26C G93U,0.86
4,A24G G93A,0.88
5,U26C A89U,0.5
6,U26C A94G,0.95
7,U26C G58U,1.48
8,A24G U37C,1.12
9,U26A A140G,2.37
10,A24G U87C,1.18
11,U26C U127C,0.85
12,A24G U122A,1.19
13,A24G U122C,0.84
14,U26C A30G,1.25
15,U26G A89C,1.29
16,A24G G80C,0.1
17,A24G G104A,0.04
18,U26C A117U,0.5
19,U26C A117G,1.36
20,A24G U127A,1.53
21,U26C A78U,0.21
22,U26C A78G,0.21
23,A24G U100C,1.97
24,U26G A36G,1.37

row,Variant,self-cleavage
1,C25U A86U,0.61
2,C25U A86G,1.2
3,U26A A118G,0.34
4,A24U A117G,1.85
5,U26C U124C,1.05
6,U26C U37C,0.95
7,A24U A126G,1.15
8,C25U U72C,0.4
9,U26C A126G,0.72
10,U26C A27C,2.1
11,A24G U39A,1.45
12,U26C A116U,0.18
13,U26C A118G,2.14
14,A24U A78G,0.38
15,A24G U108C,0.03
16,A24G U108A,0.04
17,A24U U37C,1.82
18,U26A A54C,1.61
19,A24G G58A,0.4
20,A24U G28C,1.02
21,U26A U139A,1.05
22,U26C U122A,1.87
23,A24G U130C,1.38
24,A24G U130G,0.56

row,Variant,self-cleavage
1,U26C A51G,1.72
2,A24U A114U,0.22
3,A24U A114C,0.04
4,U26A A110G,0.22
5,U26A A63U,2.02
6,U26A A63C,1.71
7,U26C A62G,1.47
8,C25U A82G,0.05
9,A24U U131A,0.43
10,A24G G123A,1.48
11,A24G U102C,1.48
12,A24G U102A,0.51
13,U26C A111G,0.03
14,U26G,1.33
15,U26C,1.26
16,U26A,1.07
17,C25A A33G,0.9
18,A24G G79A,0.18
19,A24U C105U,0.17
20,A24U U100A,0.31
21,U26C U70C,0.38
22,U26C U70A,0.63
23,A24G G138A,1.18
24,U26C U87A,1.6

row,Variant,self-cleavage
1,U26C U132C,0.52
2,U26C A91G,1.26
3,C25U A89C,1.42
4,C25U A92G,0.6
5,U26C A69C,1.74
6,U26A A117G,1.78
7,U26C U131A,1.02
8,C25G,1.1
9,C25U,1.3
10,C25A,0.92
11,U26A A89G,1.53
12,C25A U122A,0.94
13,U26A A78G,0.17
14,U26A A78U,0.43
15,U26C A64G,0.74
16,A24U A96G,0.87
17,A24U U127C,1.36
18,U26C A140U,0.35
19,A24G U26C,0.81
20,C25U A47U,1.35
21,C25U A56G,0.46
22,U26A A59G,1.18
23,U26C C76U,0.09
24,A24U U122C,1.08

row,Variant,self-cleavage
1,A24U C71A,0.49
2,A24G U97A,1.79
3,U26C U49C,1.41
4,A24U,1.41
5,A24G U131A,1.22
6,U26C A60U,1.43
7,A24U U97G,1.9
8,A24G G75A,0.15
9,A24G U38C,1.46
10,C25A A135G,1.61
11,U26A A66C,0.9
12,C25U A60G,1.88
13,A27C A78C,0.25
14,A24G G41U,1.18
15,A24U A59G,1.28
16,U26C A135U,0.57
17,U26C A95G,1.75
18,A24G U120C,0.35
19,U26C A96U,1.89
20,U26A U37C,0.43
21,U26C A66G,0.9
22,A24G U57C,1.51
23,U26C U72C,0.07
24,U26C U72A,0.33

row,Variant,self-cleavage
1,A24U A89G,0.56
2,U26C A33G,0.84
3,U26G U127A,1.82
4,A24U A116G,0.78
5,U26C A82G,0.5
6,U26C A47G,1.24
7,C25U A94U,1.62
8,A24U A67U,1.89
9,U26G A114U,0.06
10,A24G U70C,0.53
11,A24G U43C,1.37
12,A24G U43A,1.29
13,C25U A33G,1.12
14,U26C A114G,0.04
15,A24U A95G,1.95
16,A24U U49C,0.58
17,A27C A36C,2.11
18,A24U U108C,0.02
19,A24U U108A,0.07
20,A27C A91G,0.64
21,C25U A30G,1.24
22,A24U U120C,0.8
23,A24U U133A,1.54

# — the RNAGym collection of RNA variant scans (doi:10.7554/elife.90254)
